According to article PMC7800377:

Biological target: SUN domain of human SUN1 (amino acid residues 616–812), tags removed (human)
Assay: SEC-MALS; co-expressed and co-purified samples at >1 mg/ml on Superdex 200 Increase 10/300 GL in 20 mM Tris pH 8.0, 150 mM KCl, 2 mM DTT

Sequence of KASH domain of human Nesprin-1 (KASH1, amino acid residues 8769–8797), tags removed (Q8NF91 8769-8797): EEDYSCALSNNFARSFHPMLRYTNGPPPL

Substance: KASH domain of human Nesprin-1 (KASH1, amino acid residues 8769–8797), tags removed (from UniProt Q8NF91 8769-8797) (domain or fragment)
- stoichiometry N (binder:target ratio (6:6)): 1
